Patent US7193044
Non-standard residues stand in square brackets, D forms with d. No end group written: not given here. pS = N[C@@H](COP(=O)(O)O)C(=O)O

Biological target: Recombinant Bcl-XL tagged with the glutathione S-transferase (GST) moiety [GST: P08515]
Assay: competition ELISA: peptide against immobilised BAK BH3 peptide for GST-Bcl-XL

Sequence of Recombinant Bcl-XL tagged with the glutathione S-transferase (GST) moiety [GST: P08515] (Q07817 whole entry): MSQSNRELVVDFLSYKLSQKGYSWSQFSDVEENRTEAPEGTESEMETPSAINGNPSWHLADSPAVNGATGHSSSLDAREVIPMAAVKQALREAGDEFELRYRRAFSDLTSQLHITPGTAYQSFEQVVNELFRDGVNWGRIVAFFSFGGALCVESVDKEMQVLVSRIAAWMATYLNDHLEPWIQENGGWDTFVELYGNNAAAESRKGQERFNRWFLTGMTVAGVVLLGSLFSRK

Q: Which fold reduction of affinity against the unphosphorylated BAD BH3 peptide does the source give for AAQRYGRELRRM[pS]DEFEGSFKGLPRP [Synthetic BAD BH3 peptide (residues 143-168) phosphorylated on Ser155] here?
A: > 100 fold
